For test [1], the target named is extracellular tau in the form of paired helical filaments (ePHF tau) (UniProt P10636). The test is described as follows: anti-eTau ELISA of ExpiCHO supernatant, concentration of tau-binding antibody. On the technique in general: An ELISA detects its analyte on a solid surface through an enzyme-linked reagent.
In test [2] the target is wild-type tau (Tau441) (human) (UniProt P10636). In words: ELISA, Tau441 on plate; antibody at […].
The target is the same in test [3]. In words: ELISA, Tau441 on plate; antibody at 4.1 ng/mL.
For test [4] the target is unchanged. In words: ELISA, Tau441 on plate; antibody at 12.3 ng/mL.
The target is the same in test [5]. The test is described as follows: ELISA, Tau441 on plate; antibody at 37.0 ng/mL.
Test [6] shares this target. The test is described as follows: ELISA, Tau441 on plate; antibody at 111.1 ng/mL.
The target is the same in test [7]. The test is described as follows: ELISA, Tau441 on plate; antibody at 333.3 ng/mL.
For test [8] the target is unchanged. The test is described as follows: ELISA, Tau441 on plate; antibody at 1000.0 ng/mL.
The target is the same in test [9]. In words: ELISA, Tau441 on plate; antibody at 0.0 ng/mL [sic].

In US20220339270A1 one finds anti-eTau ELISA antibody concentration and OD450 data, which are given here for seven substances.

Sequence of extracellular tau in the form of paired helical filaments (ePHF tau) (P10636 other isoform, or with tags, fused parts or gaps limits assumed): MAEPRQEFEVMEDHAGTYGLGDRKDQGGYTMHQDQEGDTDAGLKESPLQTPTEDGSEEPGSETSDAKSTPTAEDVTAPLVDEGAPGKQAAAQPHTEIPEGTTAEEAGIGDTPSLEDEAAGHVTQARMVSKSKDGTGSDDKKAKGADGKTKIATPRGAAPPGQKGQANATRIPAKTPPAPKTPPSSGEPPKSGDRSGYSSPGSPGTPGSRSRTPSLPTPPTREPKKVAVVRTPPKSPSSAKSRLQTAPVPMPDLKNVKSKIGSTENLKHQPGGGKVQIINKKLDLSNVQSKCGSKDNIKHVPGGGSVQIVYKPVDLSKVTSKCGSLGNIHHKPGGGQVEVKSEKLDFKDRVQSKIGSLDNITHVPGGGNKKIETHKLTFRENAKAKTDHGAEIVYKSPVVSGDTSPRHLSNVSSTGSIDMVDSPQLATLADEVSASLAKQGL
Sequence of wild-type tau (Tau441) (human) (P10636 other isoform, or with tags, fused parts or gaps limits assumed): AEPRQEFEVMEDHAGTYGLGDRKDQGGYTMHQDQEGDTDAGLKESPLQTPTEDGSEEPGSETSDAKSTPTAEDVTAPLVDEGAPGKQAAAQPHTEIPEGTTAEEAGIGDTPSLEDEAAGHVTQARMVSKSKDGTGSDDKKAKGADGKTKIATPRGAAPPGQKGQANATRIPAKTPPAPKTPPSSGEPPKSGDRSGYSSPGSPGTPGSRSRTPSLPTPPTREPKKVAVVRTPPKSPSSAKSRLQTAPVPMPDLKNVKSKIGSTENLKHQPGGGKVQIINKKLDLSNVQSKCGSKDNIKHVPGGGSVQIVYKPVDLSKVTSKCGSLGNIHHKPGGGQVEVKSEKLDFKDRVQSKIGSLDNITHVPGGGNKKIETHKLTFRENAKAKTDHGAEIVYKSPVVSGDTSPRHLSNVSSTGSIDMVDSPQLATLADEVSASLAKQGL

“PHF1 antibody expressed from viral genome construct TAU_ITR70 (PHF-1 LF2AH) (antibody; other documents disagree on this pair)” gave an anti-eTau ELISA antibody concentration in test [1] of 4280 ng/mL.
For “PHF1 antibody expressed from viral genome construct TAU_ITR85 (PHF-1 HF.F2AL) (antibody; other documents disagree on this pair)”, the anti-eTau ELISA antibody concentration in test [1] was 18.8 ng/mL.
Substance “PHF1 antibody expressed from viral genome construct TAU_ITR86 (PHF-1 LF2AH) (antibody; other documents disagree on this pair)” yielded an anti-eTau ELISA antibody concentration in test [1] of 1530 ng/mL.
Turning to “Tau5 (anti-tau, 210-230; BioLegend cat #806401) (antibody)”, the OD450 turned out to be 0.2 OD450 in test [2]; 0.6 OD450 in test [3]; 1.2 OD450 in test [4]; 2.6 OD450 in test [5]; 3.3 OD450 in test [6]; 3.3 OD450 in test [7]. In addition, the figures for the OD450 in test [8] and in [9] were 3.3 OD450 and 0.1 OD450, respectively.
For the substance “Tau12 (anti-tau, 6-18; BioLegend cat #806501) (antibody)”, the OD450 in [2] was 0.4 OD450; in [3] it was 0.9 OD450; in [4] it was 2 OD450; in test [5], 3.1 OD450; in [6], 3.3 OD450; in test [7], 3.3 OD450. The figures for the OD450 in test [8] and in test [9] were 3.3 OD450 and 0 OD450, respectively.
“Tau46 (anti-tau, 404-421; BioLegend cat #806601) (antibody)”: the OD450 came out at 0.2 OD450 in [2]; 0.4 OD450 in [3]; 1 OD450 in [4]; 2 OD450 in [5]; 3 OD450 in test [6]; 3.2 OD450 in [7]. Also, the OD450 came out at 3.2 OD450 in [8] and 0.1 OD450 in test [9].
In the case of “Tau-13 (anti-tau, 20-35; BioLegend cat #835201) (antibody)”, the OD450 in [2] stood at 0.2 OD450; in [3], 0.5 OD450; in test [4], 1.2 OD450; in test [5], 2.3 OD450; in test [6] it was 3.1 OD450; in [7] it was 3.2 OD450. Also, the OD450 in test [8] came out at 3.2 OD450; in test [9], 0 OD450.
